According to PMC10374466:

B1: IDO-APT (#4) (ssDNA)
DNA: CAGCACCGTCAACTGAATGCCAACGGCATATCCGGACAGGCGGGAACCTAGGGCCTTTGTGATGCGATGGAGATGT
B2: #1 (ssDNA)
DNA: CAGCACCGTCAACTGAATATCAGGACGGACCTGGGGAGGTCAGTTAGCCCTCTGAACTGTGATGCGATGGAGATGT
B3: #2 (ssDNA)
DNA: CAGCACCGTCAACTGAATCCGTCACTCGCTCGGGGGTCCGACATTTACCCTGTGAAATGTGATGCGATGGAGATGT
B4: #3 (ssDNA)
DNA: CAGCACCGTCAACTGAATAGGAAGATACCCGGGGGTACCGTTACCGCTGTGAACGGAGGTGATGCGATGGAGATGT

Key:
mouse IDO1 [1] = target: T1, mouse IDO1 (Mus musculus, UniProt P28776 1-407); assay: flow cytometry on protein-coated beads
T1 sequence (P28776 whole entry): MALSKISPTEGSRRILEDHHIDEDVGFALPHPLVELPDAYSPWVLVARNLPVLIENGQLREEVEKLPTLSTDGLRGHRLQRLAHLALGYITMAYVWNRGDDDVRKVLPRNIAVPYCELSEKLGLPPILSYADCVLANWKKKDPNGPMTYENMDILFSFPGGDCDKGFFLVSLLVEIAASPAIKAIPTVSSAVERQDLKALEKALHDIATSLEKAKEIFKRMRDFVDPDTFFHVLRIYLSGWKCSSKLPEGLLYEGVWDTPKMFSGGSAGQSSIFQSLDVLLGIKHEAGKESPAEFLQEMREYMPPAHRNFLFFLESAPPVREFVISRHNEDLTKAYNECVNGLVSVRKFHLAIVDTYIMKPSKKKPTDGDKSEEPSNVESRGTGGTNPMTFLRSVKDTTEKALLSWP

mouse IDO1 [2] = target: T1, mouse IDO1; assay: flow cytometry on protein-coated beads; remark: listed apart in the source

| Binder | Kd (mouse IDO1 [1]) | binding result (mouse IDO1 [2]) |
| --- | --- | --- |
| B1 | 131 ± 9 nM |  |
| B2 |  | binds |
| B3 |  | binds |
| B4 |  | binds |
